Results from the supplement of paper PMC10567573.
± gives the standard deviation.

Experiment: protein stability index of a GFP-peptide fusion (GPS, HEK-293T) (PSI 1-6); higher = more stable
[1] = treatment: DMSO, c terminus: a fixed tail appended
[2] = treatment: MLN4924 1 uM, 8 h, c terminus: a fixed tail appended
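Also: 24-mer peptide tiles fused after GFP, lentivirally expressed, FACS-sorted into six equal bins by GFP/DsRed ratio, decoded by Illumina sequencing, PSI is the read-weighted mean bin number.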

Row | Sequence | protein stability index [1] | protein stability index [2] | protein stability index (treatment: DMSO, c terminus: native) | protein stability index (treatment: MLN4924 1 uM, 8 h, c terminus: native)
1 | EGYKDADYWLRRFEAEPLPENTNR [PI4K2A] | 4.52 ± 0.13 | 4.41 ± 0.16 |  | 
2 | SLSDLEIQASAGVISKKAKVKVPQ [ZNF75A] | 4.44 ± 0.21 | 4.55 ± 0.14 |  | 
3 | YGDWTSGENSDGCYEHFAELDIPQ [CLPTM1] | 4.54 ± 0.23 | 4.63 ± 0.26 |  | 
4 | MEVLPCSRVAHIERTRKPYNNDID [GALNT9] | 2.46 ± 0.26 | 2.44 ± 0.28 |  | 
5 | MDVMPGEGDLPQMEVGSGSRELSL [EID1] | 4.8 ± 0.2 | 5.06 ± 0.17 |  | 
6 | AEETANLPPSPPPSPASEQTVTVE [MAP2] | 5.05 ± 0.18 | 5.18 ± 0.17 |  | 
7 | QALGEHLKLRQQVIATATVYFKRF [CCNC] | 2.54 ± 0.55 | 2.48 ± 0.42 |  | 
8 | ENLEGVPSVCSENIHPQVLLPDQA [ZNF263] | 5 ± 0.39 | 4.96 ± 0.11 |  | 
9 | LDAEDRPAWNSKLQYILAQIGFSV [SLC6A17] | 2.19 ± 0.53 | 2.32 ± 0.21 |  | 
10 | KEPVIIECGHNFCKACITRWWEDL [TRIM39] | 2.53 ± 0.5 | 2.62 ± 0.36 |  | 
11 | MELKVGDFGLAARLEPLEHRRRTI [PLK2] | 3.23 ± 0.16 | 3.43 ± 0.25 |  | 
12 | WYSPYAKTLQPTKQPNCSSLFKLK [PLD5] | 2.32 ± 0.21 | 2.79 ± 0.21 |  | 
13 | AMLREKFPEFCSSPSPPVEVKIEE [INTS3] | 4.51 ± 0.3 | 4.65 ± 0.12 |  | 
14 | ACIAYIRITQYLDAGGIPRTAQSE [CAMK2A] | 2.64 ± 0.42 | 2.81 ± 0.39 |  | 
15 | IVALYIASGLTGFIGLEVVAQLFN [ATL3] | 3.24 ± 0.094 | 3.31 ± 0.33 |  | 
16 | EIVVTISWAKSIPGFSSLSLSDQM [ESRRA] | 3.19 ± 0.5 | 2.59 ± 0.22 |  | 
17 | QEQVAGGEAQPGLPQEDPSTSQGC [FEM1A] | 5.34 ± 0.12 | 5.42 ± 0.43 |  | 

Row | Sequence | protein stability index [1] | protein stability index [2] | protein stability index (treatment: DMSO, c terminus: native) | protein stability index (treatment: MLN4924 1 uM, 8 h, c terminus: native)
18 | PQSLPSTPKAAWIREEGRCSSSDD [PBXIP1] | 5.25 ± 0.2 | 5.27 ± 0.14 |  | 
19 | SFGLRFGKREAAPGNHGRSAGRG [KISS1] |  |  | 3.23 ± 0.21 | 2.64 ± 0.45
20 | SSKEEQKLIATSNKPAVKLLYNRS [KCTD10] | 3.9 ± 0.27 | 4.08 ± 0.48 |  | 
21 | SQGAISEGAQRDRFPGRKQPGVHE [C22orf31] | 5.05 ± 0.095 | 5.1 ± 0.18 |  | 
22 | EARFIRRSCTPNAEVRHEIQDGTI [KMT2E] | 4.34 ± 0.67 | 4.27 ± 0.11 |  | 
23 | VSLTSPSAPPTSRTSSGNVWVTHE [PPFIA4] | 3.35 ± 0.21 | 3.47 ± 0.32 |  | 
24 | NNDCRIYVGNLPPDIRTKDIEDVF [SRSF1] | 3.09 ± 0.31 | 3.3 ± 0.37 |  | 
25 | EQTCDPDSSLHWSSSYSPETFRQQ [ZNF396] | 4.43 ± 0.12 | 4.58 ± 0.12 |  | 
26 | QPGTNCALAIKVNLCGHWYYSKAC [ADAMTSL2] | 2.7 ± 0.72 | 2.75 ± 0.45 |  | 
27 | AGADLEHESEGGRTPLMKAARAGH [ANKRD17] | 5.07 ± 0.29 | 4.95 ± 0.26 |  | 
28 | RFCLVPSMEGVRWAFSCGTWLPSR [AASDHPPT] | 2.48 ± 0.79 | 2.32 ± 0.056 |  | 
29 | MLRTGLGVIRMWADEGSRNSRFQM [NETO1] | 2.5 ± 0.11 | 2.39 ± 0.4 |  | 
30 | SMWTRPQIKDFKEKIQQDADSVIT [ACBD3] | 3.88 ± 0.2 | 4.08 ± 0.42 |  | 
31 | NKQAYDLAKALLKRTAQAIEPYIT [PDS5B] | 2.54 ± 0.46 | 2.63 ± 0.37 |  | 
32 | PSVYHAMPSPCSCMSFNPETRRLS [WDFY2] | 2.57 ± 0.36 | 2.88 ± 0.41 |  | 
33 | LVEKGVLTTEKQNFLLFDMTTHPL [GOLPH3] | 2.51 ± 0.27 | 2.5 ± 0.3 |  | 
